This data set in a line: yeast display, Sf9 membrane polyspecificity reagent, FACS + sequencing; frameworks hold sequencing errors. The method, boiled down:
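Using colony PCR, genes from sorted yeast display clones were amplified, then sequenced on MiSeq at 2 × 250 and filtered by CDR length. The clones had been stained with 10% biotinylated, detergent-solubilized Sf9 membrane reagent for 1 hour at 4 °C and sorted by FACS into low and high (top ~1%) gates on anti-HA and streptavidin fluorescence. Polyreactivity labels come from the gate of origin.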
As for “QVLLVESGGCLVQAGGSVRLSCAASGSTFAPYVMGWYTQAPGKERELVADISTSGSTYYADSVKGRFTISRDNAKNTVYLQMNSMKPEDTAVYYCAAEDQRWFWTYDCWGQGTQVTVSS”, the “polyreactivity (PSR sort gate)” value is given as “high polyreactivity”.
As for “QVQLLESGGGLVQAGVSLRLSCAASGRIFPYNAMGRYRQAAGKVREFVAAIYYSGGRTYYADSVKGRFTITRDNAKNTVYIQMNSLKPEDTAVYFCDISRYDYTKTEGGYWGQGTQVTVSS”, the entry is “low polyreactivity”; as for “QVQLVESGGGLVQAGGSLRLSCAASGSSFDWNAMGWYRQAPGKERELVASITGSGGGTNYADSVKGRFTISRDNAKNTVYLQMNSLKPEDTAVYYCNADGLNFDGHEYWGQGTQVTVSS”, “low polyreactivity”; as for “QVQLVESGGGLVQAGGSLRLSCAASGSTFIANALGWYRQAPGKEREFVAAITWSGGSTYYADSVKGRFTLSRDNAKNTVFLQMNSLKPEDTAVYYCAKKGRTARGRYDYWGQGTQVTVSS”, “low polyreactivity”.
The entry for “QVQLVESGGGLVHAGGSLRLSCAASGFTFGTYAMGWYRQAPGKEMELVSAISWKGGSTFYADSVKGRFTISRDNAKNTVYLQMNSLKPEDTAVYYCSKLLRRGGHRVFTYDYWGQGTQVTVSS” is “high polyreactivity”; for “QVQLEESGGGLVQAGGSLRLSCAASGRTFYIYAMGWYRQAAGKERELVAAITWSGGTTYYADSVKGRFTISRDNAKNTVYLQMNSLKPEDTAVYDCNAGATYVKRRRGRKYDYWGQGTQVTVSS” it is “low polyreactivity”; for “QVQLVESGGGLVQAGGSLRLSCAASGSTFTYYAMGWYRQAPGTERELVAAITGSDGRTYYADSVKGRFTISRDNAKNTVYLQMNSLKPEDTAVYYCATDVPIREIDEFGYWGQGTQVTVSS” it is “low polyreactivity”.
The entry for “QVQLVESGGGLVQAGGSLRLSCAASGSIFGYEMGWYRQAPGRERELVAAISFSGVSTYYADSVKGRFTISRDNAKNTVYIQMNSLKQEDTAVYNCNAYSDGDEDYWVQGTQVTVSS” is “low polyreactivity”.
“QVQLVESGGGLVQAGGSLRLSCAASRFIFGAYTMGWYRQAPGKERELVAAISWSGDSTYYADSVKGRFTISRDNAKNTVYLQMNSLKPEDTAVYYCAAVWYWSGFDYWGQGTQVTVSS”: the “polyreactivity (PSR sort gate)” value is “high polyreactivity”.
The entry for “QVQLVESGGGLVQAGGSLRLSCAASGFIFEDYAMGWYTQATGKERELVAAITWRGGRTYYADSVKGRFTISRDNAKNTVYLQMNSLKPEDTAVYYCRPQVYSYASRYGYWGQGTQVTVLS” is “low polyreactivity”; for “QVHLVESGGGLVQAGGSLRLSCAASGITFYRFVLGGYRQAPGKEWELDAAISRTGGYTYYADSVKGRFTLSRDNAKNTVYLQMNSLKPVDTAVYYCAAATSTGIYDYWGQGTQVTGSS” it is “high polyreactivity”; for “QVQLVESGGGLVQAGGSLRLSCAASGLTFKTYAMGWYRQAPGKERELVAAISRSGGSTSYADSVKGRFTISRDNAKNTVYLQLNSLIPEDTEVYYCAAKTYEPRKYDYWGQGTQVTVSS” it is “high polyreactivity”.
The entry for “QVQLVESGGGLVQAGGSLRLSCAASGIIFGGYTMGWSRQAPGKERELVAAISWSGVGTYYADSVKGRFTISRDNAKNTVYLQMNSLKPEDTAVYYCAAWAYYSDDDEYWGQGTQVTVSS” is “high polyreactivity”; for “QVQLVESGGGLVQAGGSLRLSCAASGSTFRRNTMGWYREAPGKEREFVAALSRRGGSTYYADSVKGRFTISRDNAKNTVYFQMNRLKPEDTGVYYCAAPGLSRLYNVYYWPYDYWGQGTQVTVSS” it is “high polyreactivity”; for “QVQLVESGGGLVQAGGSLRLSCAASGFIFFQNAMGWYRQAQGKERELVAAISRRGGSTYYADSVKGRFTISRDNAKNTVYLQMNSLKPEDTAVYYCAARSRGDLASLYTGDYWGQGTQVTVSS” it is “low polyreactivity”.
With “QVQLVESGGALVQAGGSLRLSCAASGSIFDDNAMGWYRQAPGKERELVAAITGSGGRTYYADSVKGRFTISRDNAQNTVDLQMNSLKPEDTAVYYCAAQGAYNYFNAWYGYEYWGQGTQVTVSS”, the “polyreactivity (PSR sort gate)” value was “high polyreactivity”.
With “QVQLVESGGGLVQAGGSLRLSCAASGRTFYGNTMGWYIQAPGKERELVAAITRSGGSTYYADSVKGRFTISRDNAKNTVYFQMNSLKPEDTAVYYCAASRTYYAPYGYWGQGTQVTVSS”, the “polyreactivity (PSR sort gate)” value is recorded as “high polyreactivity”.
Take “QVQLVESGGGLVQAGGSLRLSCAASGFTYSFYTMGWSRQAPGKERELVAAISRNGGSTYYADSVKGRFTISRDNAKNTVYLQMNSLKPEDTAVYYCAARARGGDWGSGDYWGQGTQVTVSS”: the “polyreactivity (PSR sort gate)” value is “high polyreactivity”.
As for “QVQLVESGGGLVQAGGSLRLSCAASGSTFASYAMGWYRQAPGKERELVAAIRWRGGTTYYADSVKGRFTISRDNAKNTVYLQMNSLKPEDTAVYYCNADRYYLYYYWGQGTQVTVSS”, the entry is “low polyreactivity”.
In the case of “QVQIVESGGGLVQAGGILRLSCAASGRIFWRNAMGWYRQAPGKEREFVAAITYTAGRTYYADSVKGRFTISRDNSKITVYLQMNSLKPEDTAVYYCAAGSRRPGGTGYDHWVQGTQVTVSS”, the “polyreactivity (PSR sort gate)” value is “low polyreactivity”.
The entry for “QVQLVESGGGLVQAGGSLRLSCAASGFTLYYSAMGWYRQAPGKERELVAAISYSGGSTYYADSVKGRFTISRDYAKNTVYLHMYSLKPEDTAVSYCAVQFSYGFTGGPIYDYWGQGTQVTVSS” is “low polyreactivity”.
The entry for “QVQLVESGGGLVQAGGSLRLSCAASGFTFYKNAMGWYRQAPGKERELVAAISRSGGSTYYADSVKGRFTISRDNAKNTVYLKMNSLKPEDTAVYYWAKGYCNFYRSDYWGQGTHVTVSS” is “high polyreactivity”; for “QVQLVESGVGLVQAGGSLRLIWAASGSTFVKNVMGWYRQAPGKERELVAGITRGGSTYYADSVKGRFTISRDNAKKTVYLQMNSLKPEDTAVYYCAKRYAWDRDYWGQGTQVTVSS” it is “high polyreactivity”.
The entry for “QVQLVESGGGLVQAGGSLRLSCAASGSIYPNGLGWYRQAPGKERELVATITSGGSTYYADSVKGRFTISRDNAKNTVYLPMHSQKPEDTAVYYCAATVYGGYSGSGSNYWGQGTQVTVSS” is “low polyreactivity”.
On to “QVQLVESGGGLDQAGGSLRLSCAASGGIFVGYAMGWYRQSPGKERELVASISSGGSTKYADSVKGRFTISRDNAKNTVYLQMNSLKPEDTAVYYCAATDTEGIDARYASVPTSYDYWGQGTQVTVSS”, for which the “polyreactivity (PSR sort gate)” value is given as “low polyreactivity”.
As for “QEQLVESGGGLVQAGGSLRLSCAAYGSTYNSYVMGWNRQAPVKERELVAAISTSGGRTYYADSVKGRFTISRDNAKNTVYLKMISLKPEDTAVYYCNRVFLKYYESTHWRDYWGQGTKVTVSS”, the entry is “high polyreactivity”; as for “QVQLVESGGGLVQAGGSLRLSCAASGLIFTRNFMGWYRQAPGKERELVAAITSGGSTYYADSVKRRFTISRDNAKNTVYLQMNSLNPEDTADYYCAAGCDYLLSTVRFDYWGQGTQVTVSS”, “high polyreactivity”.
As for “QVQLVESGGGLVQAGGSLRLSCAASGLIFGPYAMGWYRQAPGKERELVAAITSSGGSTYYADSVKGRFTISRDNAKNTVYLQMNSLKPEDTAVYSCAARGSPRYYARYNYWGQGTQVTVSS”, the “polyreactivity (PSR sort gate)” value was “low polyreactivity”.
With “QVQLVESGGGLVQAGGSLRLSCAASGRTFYIYAMGWYRQAPGKERELVAAISTTGGRTYYADSVKGRFTISRDNAKNTVYLQMNSLKPVDTAVYFCAAPARTRYDYWGQGTQVTVSS”, the “polyreactivity (PSR sort gate)” value is recorded as “high polyreactivity”.
With “QVQLVESGGGLVQAGGSLRLSCAASGSIFLGNAMGWYRQAPGKERELVAAITSRGGRTYYADSVKGRFTISRDNAKNTVYLQMISLKPEDTAVYYCAADVSRPRAGFNYWGQGTQVTVSS”, the “polyreactivity (PSR sort gate)” value is on record as “high polyreactivity”.
With “QVQLEESGGGLVQAGGSLRLICAASGRIFGVNAMGWYRQAHGKERELVAVISSGGSTYYADSVKGRFTISRDNAKNTVYLQMNSLKPEDTAVYYCNAVVGSWFPYNLSDYWGEGTQVTVSS”, the “polyreactivity (PSR sort gate)” value is “low polyreactivity”.
As for “QVQLVESGGGLVQAGGSLRLSCAASGSTFAKYAMGWYRQAPGKERELVATITDGGSTYYADSVKGRFTISRDNAKNTVYLQMNRMKPEDTAVYYCNAVILYWLYTSYVAGWPYDYWGQGTQVTVSS”, the entry is “high polyreactivity”; as for “QVQLVESGGGLVQAGGSLRLICAASGFTIVPNAMGWYRQAPGKERELVAAISRSTGGTYYADSVKGRFTISRDNAKNTVYLQMNSLKPEDTAVYYCAAEYWYWTYGMDYWGQGTQVTVSS”, “high polyreactivity”; as for “QVQLVESGGGLVQAGGSLRLSCAASGFTFISYAMGWYRQAPGKERELVADISSSGDSTSYADSVKGRFTISRDNAKNTVYLQMNSLKPEDTAVYYCAAGDGYVYGEYDYWGQGTQVTVSS”, “low polyreactivity”.
The entry for “QVQLVESGGGLVQAGGSLRLSCAASGFTFWWYTMGWYRPAPGKERELVAAITSGGSTYYADSVKGRFTISRDNAKNTVYLQMNSLKPEDTAVYYCNVVPYLYGLDGYDYWGQGTQVTVSS” is “high polyreactivity”; for “QVQLVESGGRLVQAVASHRLSCAASGSIFRKYALGCYRQAPGKERELVAAIRSSGGSTYYADSVKGRFTISRDNAKNTVYLQMISLIPEDTAVYYCAARYYRPSRYDYWGQGTQVTVSS” it is “high polyreactivity”; for “QVQLVESGGGLVQAGGSLRLSCAASGRTFDSYAMGWYRQAPGKERELVAAIYADSVKGRFTISRDNAKNTVYLQMNSLKPEDTAVYYCAAETYSGQTYLGEYDYWGQGTQVTVSS” it is “low polyreactivity”.
The entry for “QVQLVESGGGLVQAGGSLRLSCDASGLTFRLYTMGWYRQAPGKETELGAAITYSGDSTYYADSVKGRFTISRDNAKNTDYLQMNSLKPEDTAVYYCAARKYYARYYWGQGTQVTVSW” is “high polyreactivity”.
As to “QVQLVESGGGLVQAGGSLRLSCAASGRNFYVYTMGWYRQAPGKERELVAAISWSGGSTHHADSVKGRFTISRDNAKNTVYLQMNSLKPEDTAVYYCNKGVVSRVAFEYWGQGTQVTVSS”, the “polyreactivity (PSR sort gate)” value is “low polyreactivity”.
The entry for “QVQLVESGGGLVQAGGSLRLSCAASGFILATYAMGCYRQAPGKERELVAAISASGSSTYYADSVKGRFTISRDNAKNTVYLQMNSLKPEDTAVYYCAASWGYGALTPDMGYWGQGTQVTVSS” is “low polyreactivity”; for “QVQLVESGGGLVQAGGSLRLSSAASGRTYNVYAMGWSRQAPGKERELVAGITRASTNYADSVKGRFTISRDNAKNTVYLLMNSLKPEVTAVYYCAAKIFPKGDYWGQGTQVTVSS” it is “high polyreactivity”.
